Assay results reported in the FLAb antibody collection.

B1: unnamed (protein)
chain 1: QVQLVQSGAELKKPGSSVKVSCKASGYIFTSSWINWVKQAPGQGLEWIGRIDPSDGEVHYNQDFKDKATLTVDKSTNTAYMELSSLRSEDTAVYYCARGFLPWFADWGQGTLVTVSS
chain 2: DIQMTQSPSTLSASVGDRVTITCKASENVDTYVSWYQQKPGKAPKLLIYGASNRYTGVPSRFSGSGSGTDFTLTISSLQPDDFATYYCGQSYNYPFTFGQGTKVEVK
B2: unnamed (protein)
chain 1: EVQLVESGGGLVQPGGSLRLSCAASGFFITNNYWGWVRQAPGKGLEWVGYISYSGSTSYNPSLKSRFTISRDTSKNTFYLQMNSLRAEDTAVYYCARTGSSGYFDFWGQGTLVTVSS
chain 2: DIQMTQSPSSLSASVGDRVTITCRASESVDDLLHWYQQKPGKAPKLLIKYASQSISGVPSRFSGSGSGTDFTLTISSLQPEDFATYYCQQGNSLPNTFGQGTKVEIK
B3: unnamed (protein)
chain 1: QVELVESGGGLVQPGGSLRLSCAASGFTFSSYAMSWVRQAPGKGLEWVSAINASGTRTYYADSVKGRFTISRDNSKNTLYLQMNSLRAEDTAVYYCARGKGNTHKPYGYVRYFDVWGQGTLVTVSS
chain 2: DIVLTQSPATLSLSPGERATLSCRASQSVSSSYLAWYQQKPGQAPRLLIYGASSRATGVPARFSGSGSGTDFTLTISSLEPEDFATYYCLQIYNMPITFGQGTKVEIK
B4: unnamed (protein)
chain 1: QVQLVESGGGLVQPGGSLRLSCAASGFTFRSYAMSWVRQAPGKGLEWVSAISGRGDNTYYADSVKGRFTISRDNSKNTLYLQMNSLRAEDTAVYYCAKMTSNAFAFDYWGQGTLVTVSS
chain 2: QSVLTQPPSVSGAPGQRVTISCTGSSSNIGAGYGVHWYQQLPGTAPKLLIYGNTNRPSGVPDRFSGFKSGTSASLAITGLQAEDEADYYCQSYDSSLSGWVFGGGTKLTVL
B5: unnamed (protein)
chain 1: EVQLVESGGGLVKPGGSLRLSCAASGFPFSKLGMVWVRQAPGKGLEWVSTISSGGGYTYYPDSVKGRFTISRDNAKNSLYLQMNSLRAEDTAVYYCAREGISFQGGTYTYVMDYWGQGTLVTVSS
chain 2: DIVMTQSPLSLPVTPGEPASISCRSSKSLLHRNGITYSYWYLQKPGQSPQLLIYQLSNLASGVPDRFSGSGSGTDFTLKISRVEAEDVGVYYCYQNLELPLTFGQGTKVEIK
B6: unnamed (protein)
chain 1: EVQLQQPGSELVRPGASVKLSCKASGYTFTSYWMHWVKQRPGQGLEWIGNIYPGSRSTNYDEKFKSKATLTVDTSSSTAYMQLSSLTSEDSAVYYCTRNGDYYVSSGDAMDYWGQGTSVTVSS
chain 2: DIQMTQTTSSLSASLGDRVTISCRTSQDIGNYLNWYQQKPDGTVKLLIYYTSRLHSGVPSRFSGSGSGTDFSLTINNVEQEDVATYFCQHYNTVPPTFGGGTKLEIK
B7: unnamed (protein)
chain 1: QVQLVQSGAEVKKPGSSVKVSCKASGYTFGNYWMQWVRQAPGQGLEWMGAIYEGTGKTVYIQKFADRVTITADKSTSTAYMELSSLRSEDTAVYYCARLSDYVSGFGYWGQGTTVTVSS
chain 2: DIQMTQSPSSLSASVGDRVTITCRASKDISKYLNWYQQKPGKAPKLLIYYTSGYHSGVPSRFSGSGSGTDFTLTISSLQPEDFATYYCQQGDALPPTFGGGTKVEIK
B8: unnamed (protein)
chain 1: EVQLVQSGAEVKKPGSSVKVSCKASGYTITDSNIHWVRQAPGQSLEWIGYIYPYNGGTDYNQKFKNRATLTVDNPTNTAYMELSSLRSEDTAFYYCVNGNPWLAYWGQGTLVTVSS
chain 2: DIQLTQSPSTLSASVGDRVTITCRASESLDNYGIRFLTWFQQKPGKAPKLLMYAASNQGSGVPSRFSGSGSGTEFTLTISSLQPDDFATYYCQQTKEVPWSFGQGTKVEVK
B9: unnamed (protein)
chain 1: EVQLVQSGAEVKKPGASVKVSCKASGYTLTSYGISWVRQAPGQGLEWMGWVSFYNGNTNYAQKLQGRGTMTTDPSTSTAYMELRSLRSDDTAVYYCARGYGMDVWGQGTTVTVSS
chain 2: ESALTQPASVSGSPGQSITISCTGTSSDVGGYNSVSWYQQHPGKAPKLMIYEVSNRPSGVSNRFSGSKSGNTASLTISGLQAEDEADYYCNSYTSTSMVFGGGTKLTVL
B10: unnamed (protein)
chain 1: QVQLVESGGGVVQPGRSLRLSCAASGFTFSSFGMHWVRQAPGKGLEWVAVISFDGSIKYSVDSVKGRFTISRDNSKNTLFLQMNSLRAEDTAVYYCARDRLNYYDSSGYYHYKYYGMAVWGQGTTVTVSS
chain 2: QSVLTQPPSVSAAPGQKVTISCSGSSSNIGNNYVSWYQQLPGTAPKLLIYDNNKRPSGIPDRFSGSKSGTSTTLGITGLQTGDEADYYCGTWDSRLSAVVFGGGTKLTVL
B11: unnamed (protein)
chain 1: QVQLQESGPGLVRPSQTLSLTCTVSGFTFTDFYMNWVRQPPGRGLEWIGFIRDKAKGYTTEYNPSVKGRVTMLVDTSKNQFSLRLSSVTAADTAVYYCAREGHTAAPFDYWGQGSLVTVSS
chain 2: DIQMTQSPSSLSASVGDRVTITCKASQNIDKYLNWYQQKPGKAPKLLIYNTNNLQTGVPSRFSGSGSGTDFTFTISSLQPEDIATYYCLQHISRPRTFGQGTKVEIK
B12: unnamed (protein)
chain 1: EVQLVESGGGVVQPGRSLRLSCSASGFTFSGYGLSWVRQAPGKGLEWVAMISSGGSYTYYADSVKGRFAISRDNAKNTLFLQMDSLRPEDTGVYFCARHGDDPAWFAYWGQGTPVTVSS
chain 2: DIQLTQSPSSLSASVGDRVTITCSVSSSISSNNLHWYQQKPGKAPKPWIYGTSNLASGVPSRFSGSGSGTDYTFTISSLQPEDIATYYCQQWSSYPYMYTFGQGTKVEIK
B13: unnamed (protein)
chain 1: QVQLVQSGAEVKRPGASVKVSCKASGYTFTNDIIHWVRQAPGQRLEWMGWINAGYGNTQYSQNFQDRVSITRDTSASTAYMELISLRSEDTAVYYCAREPLWFGESSPHDYYGMDVWGQGTTVTVSS
chain 2: AIQLTQSPSSLSASVGDRVTITCRASQGISSALAWYQQKPGKAPKLLIYDASSLESGVPSRFSGSGSGTDFTLTISSLQPEDFATYYCQQFNSYPLTFGGGTKVEIK
B14: unnamed (protein)
chain 1: EVQLVESGGGLVQPGGSLRLSCAASGFTLRSYSMNWVRQAPGKGLEWVSYISRSSHTIFYADSVKGRFTISRDNAKNSLYLQMDSLRDEDTAMYYCARVYSSGWHVSDYFDYWGQGILVTVSS
chain 2: B13 chain 2
B15: unnamed (protein)
chain 1: QVQLVESGGGVVQPGRSLRLSCAASGFTFSSYDMSWVRQAPGKGLEWVAKVSSGGGSTYYLDTVQGRFTISRDNSKNTLYLQMNSLRAEDTAVYYCARHLHGSFASWGQGTTVTVSS
chain 2: EIVLTQSPATLSLSPGERATLSCQASQSISNFLHWYQQRPGQAPRLLIRYRSQSISGIPARFSGSGSGTDFTLTISSLEPEDFAVYYCQQSGSWPLTFGGGTKVEIK
B16: unnamed (protein)
chain 1: EVQLVESGGGLVQPGGSLRLSCAASGFTFSNYWISWVRQAPGKGLEWVAEIRSESDASATHYAEAVKGRFTISRDNAKNSLYLQMNSLRAEDTAVYYCLAYFDYGLAIQNYWGQGTLVTVSS
chain 2: EIVLTQSPATLSLSPGERATLSCKASKRVTTYVSWYQQKPGQAPRLLIYGASNRYLGIPARFSGSGSGTDFTLTISSLEPEDFAVYYCSQSYNYPYTFGQGTKLEIK
B17: unnamed (protein)
chain 1: EVQLVESGGGVVQPGKSLRLSCAASGLTFSSYAVHWVRQAPGKGLEWVTLISYDGANQYYADSVKGRFTISRDNSKNTVYLQMNSLRPEDTAVYYCAVPGPVFGIFPPWSYFDNWGQGILVTVSS
chain 2: EIVLTQSPATLSVSPGERATLSCRASQVISHNLAWYQQKPGQAPRLLIYGASTRASGIPARFSGSGSGTDYTLTITSLQSEDFAVYYCQHYSNWPPRLTFGGGTKVEIK
B18: unnamed (protein)
chain 1: QVQLVQPGAEVKKPGTSVKLSCKASGYTFTTYWMHWVRQAPGQGLEWIGEINPTNGHTNYNQKFQGRATLTVDKSTSTAYMELSSLRSEDTAVYYCARNYVGSIFDYWGQGTLLTVSS
chain 2: DIVMTQSPDSLAMSLGERVTLNCKASENVVSYVSWYQQKPGQSPKLLIYGASNRESGVPDRFSGSGSATDFTLTISSVQAEDVADYHCGQSYNYPYTFGQGTKLEIK
B19: unnamed (protein)
chain 1: QVQLQESGPGLVKPSETLSLTCAVSGGSISGGYGWGWIRQPPGKGLEWIGSFYSSSGNTYYNPSLKSQVTISTDTSKNQFSLKLNSMTAADTAVYYCVRDRLFSVVGMVYNNWFDVWGPGVLVTVSS
chain 2: ESALTQPPSVSGAPGQKVTISCTGSTSNIGGYDLHWYQQLPGTAPKLLIYDINKRPSGISDRFSGSKSGTAASLAITGLQTEDEADYYCQSYDSSLNAQVFGGGTRLTVL

Assay: patients with anti-drug antibodies; higher = more immunogenic
For B1, the “patients with anti-drug antibodies” value was 7.8%. For B2, the “patients with anti-drug antibodies” value was 5%. For B3, the “patients with anti-drug antibodies” value was 0%. In the case of B4, the “patients with anti-drug antibodies” value is reported as 2.9%. In the case of B5, the “patients with anti-drug antibodies” value is reported as 6.5%. With B6 the “patients with anti-drug antibodies” value was 0%. For B7, the “patients with anti-drug antibodies” value was 8.7%. For B8, the “patients with anti-drug antibodies” value was 0%. For B9, the “patients with anti-drug antibodies” value was 0.3%. With B10 the “patients with anti-drug antibodies” value was 2.4%. For B11, the “patients with anti-drug antibodies” value was 5.1%. For B12, the “patients with anti-drug antibodies” value was 8.7%. For B13, the “patients with anti-drug antibodies” value was 1.7%. For B14, the “patients with anti-drug antibodies” value was 2.9%. In the case of B15, the “patients with anti-drug antibodies” value is reported as 0%. For B16, the “patients with anti-drug antibodies” value was 1.6%. In the case of B17, the “patients with anti-drug antibodies” value is reported as 1%. With B18 the “patients with anti-drug antibodies” value was 0%. For B19, the “patients with anti-drug antibodies” value was 0%.
